Experimental data published in US20250136721A1 (GlaxoSmithKline, published 2025).
Where “and” joins values, the source holds several entries; their conditions need not be identical. Identical values can stand only once. Like-named read-outs stand apart in the source and are kept apart here.

T1: Recombinant human TNFR1-Fc (human, UniProt P19438 30-211, limits assumed)
T1 construct: bought reagent; also called hTNFR1:Fc; not shown: Fc part; not described
T1 sequence (looked up): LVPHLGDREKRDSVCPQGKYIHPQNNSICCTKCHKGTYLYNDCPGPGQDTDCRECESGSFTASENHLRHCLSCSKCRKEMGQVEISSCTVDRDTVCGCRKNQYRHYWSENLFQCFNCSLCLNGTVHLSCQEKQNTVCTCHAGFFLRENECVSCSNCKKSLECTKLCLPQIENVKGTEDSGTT

T2: cynomolgus monkey TNFR1 (on monkey cells) (cynomolgus monkey, UniProt Q2PFV5 30-455)
T2 sequence: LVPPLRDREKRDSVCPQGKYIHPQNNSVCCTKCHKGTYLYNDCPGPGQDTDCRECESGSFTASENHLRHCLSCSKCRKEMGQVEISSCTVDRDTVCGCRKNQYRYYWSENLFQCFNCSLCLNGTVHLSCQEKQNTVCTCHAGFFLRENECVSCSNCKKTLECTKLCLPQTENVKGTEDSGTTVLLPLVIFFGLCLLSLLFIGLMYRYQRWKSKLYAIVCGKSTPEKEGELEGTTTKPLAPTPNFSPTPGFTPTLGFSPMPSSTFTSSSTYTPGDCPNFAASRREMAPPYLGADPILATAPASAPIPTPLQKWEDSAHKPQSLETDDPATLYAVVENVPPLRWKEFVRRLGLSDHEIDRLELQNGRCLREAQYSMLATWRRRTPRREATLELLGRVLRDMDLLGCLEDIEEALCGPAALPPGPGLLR

T3: human TNFR1 (on human cells) (human, UniProt P19438 30-455)
T3 sequence (looked up): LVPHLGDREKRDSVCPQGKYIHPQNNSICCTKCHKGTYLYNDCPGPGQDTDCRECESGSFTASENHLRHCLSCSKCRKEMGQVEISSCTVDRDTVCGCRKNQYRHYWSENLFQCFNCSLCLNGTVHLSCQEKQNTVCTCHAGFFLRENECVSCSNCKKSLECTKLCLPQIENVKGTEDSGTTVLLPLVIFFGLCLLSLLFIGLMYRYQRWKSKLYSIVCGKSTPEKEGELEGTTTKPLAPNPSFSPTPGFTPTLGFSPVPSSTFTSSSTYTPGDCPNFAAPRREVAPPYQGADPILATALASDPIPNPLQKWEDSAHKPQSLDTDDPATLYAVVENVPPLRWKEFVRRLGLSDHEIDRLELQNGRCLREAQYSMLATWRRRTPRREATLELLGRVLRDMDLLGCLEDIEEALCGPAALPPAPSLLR

T4: cynomolgus monkey TNFR1 (cynomolgus monkey, UniProt Q2PFV5 30-211)
T4 sequence: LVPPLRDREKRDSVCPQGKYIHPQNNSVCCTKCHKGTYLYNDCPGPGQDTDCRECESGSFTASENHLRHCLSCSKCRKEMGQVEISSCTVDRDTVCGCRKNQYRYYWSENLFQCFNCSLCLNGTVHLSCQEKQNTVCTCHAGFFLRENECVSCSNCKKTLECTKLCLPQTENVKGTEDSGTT


Legend:
[1] = target: pre-existing anti-VH ADA in human serum; assay: ADA confirmation assay of Example 2 (MSD): test material against labelled DOM1H-131-206
[2] = target: pre-existing anti-VH ADA in human serum; assay: ADA confirmation assay (MSD): 10 ug/mL test material against labelled DOM1H-131-206; share of 10 ADA-positive sera with binding
[3] = target: T1, Recombinant human TNFR1-Fc; assay: ELISA: dAb on coated recombinant human TNFR1-Fc
[4] = target: pre-existing anti-VH ADA in human serum; assay: ADA confirmation assay (MSD): 10 ug/mL test material against labelled DOM1H-131-206, mean of 10 sera
[5] = target: T2, cynomolgus monkey TNFR1 (on monkey …); assay: cell-based or functional assay
[6] = target: T3, human TNFR1 (on human cells); assay: cell-based or functional assay
[7] = target: pre-existing anti-VH ADA in human serum; assay: ADA confirmation assay (MSD): 10 ug/mL test material against labelled DOM1H-131-206, mean of 10 sera; remark: listed apart in the source
cynomolgus monkey TNFR1 = target: T4, cynomolgus monkey TNFR1; assay: SPR (Biacore T100), same format with cynomolgus monkey TNFR1, dAb as analyte, 1:1 model
[8] = target: T1, Recombinant human TNFR1-Fc; assay: SPR (Biacore T100): TNFR1:Fc captured by anti-human IgG on a CM4 chip, dAb as analyte, 1:1 model
[9] = target: T1, Recombinant human TNFR1-Fc; assay: ELISA: dAb on coated recombinant human TNFR1-Fc, anti-Vh detection
[10] = target: pre-existing anti-VH ADA in human serum; assay: ADA confirmation assay (MSD): 10 ug/mL test material against labelled DOM1H-131-206; share of 10 ADA-positive sera with binding; remark: listed apart in the source

| Binder | Mean % Inhibition [1] [%] | % subjects with ADA binding (10 subjects) (% of subjects) [2] | Mean % inhibition of signal in confirmation assay [4] | IC50, inhibition of LPS-induced IL-8, Cynomolgus monkey whole blood (n = 3) [5] [nM] | IC50, inhibition of TNFα-induced IL-8, CYNOMK1 Cynomolgus monkey skin fibroblasts (n = 2) [5] [nM] | IC50, inhibition of TNFα-induced IL-8, A549 human lung epithelium (n = 2) [6] [nM] | IC50, inhibition of TNFα-induced IL-8, Human whole blood (n = 3-5) [6] [nM] | IC50, inhibition of TNFα-induced IL-8, MRC5 human lung fibroblast (n = 3) [6] [nM] | Mean % inhibition of signal in confirmation assay [7] [%] | Kd (cynomolgus monkey TNFR1) [nM] | koff (cynomolgus monkey TNFR1) [s⁻¹] | kon (cynomolgus monkey TNFR1) [M⁻¹ s⁻¹] | Kd [8] [nM] | koff [8] [s⁻¹] | kon [8] [M⁻¹ s⁻¹] | other results |
| --- | --- | --- | --- | --- | --- | --- | --- | --- | --- | --- | --- | --- | --- | --- | --- | --- |
| Clone VHH2(f) (VHH) VHH: EVQLVESGGGLVQPGGSLRLSCAASGRTFSYNPMGWFRQAPGKGRELVAAISRTGGSTYYPDSVEGRFTISRDNAKRMVYLQMNSLRAEDTAVYYCAAAGVRAEDGRVRTLPSEYTFWGQGTQVTVSSAAAEVQLVESGGGLVQPGGSLRLSCAASGRTFSYNPMGWFRQAPGKGRELVAAISRTGGSTYYPDSVEGRFTISRDNAKRMVYLQMNSLRAEDTAVYYCAAAGVRAEDGRVRTLPSEYTFWGQGTQVTVSS | 94.2 |  |  |  |  |  |  |  |  |  |  |  |  |  |  |  |
| DOM1H-131-206 C-terminal ASTKGP (other, VH dAb variant) VH: EVQLLESGGGLVQPGGSLRLSCAASGFTFAHETMVWVRQAPGKGLEWVSHIPPDGQDPFYADSVKGRFTISRDNSKNTLYLQMNSLRAEDTAVYHCALLPKRGPWFDYWGQGTLVTVSSASTKGP |  | 60 | 42.6% |  |  |  |  |  |  |  |  |  |  |  |  | fold change of EC50 against the parental dAb DOM1H-131-206 [3]: ~5 fold |
| DOM1H-131-206 (other, human anti-TNFR1 VH domain antibody (dAb); biotinylated or Sulfo-Tag labelled where it is the assay reagent) VH: EVQLLESGGGLVQPGGSLRLSCAASGFTFAHETMVWVRQAPGKGLEWVSHIPPDGQDPFYADSVKGRFTISRDNSKNTLYLQMNSLRAEDTAVYHCALLPKRGPWFDYWGQGTLVTVSS |  | 100 | 96.1% and 99.5% | 0.5 | 4.8 | 1 | 1.6 | 4.8 |  | 0.015 | 0.000151 | 1.01e+07 | 0.0143 | 0.000142 | 9.94e+06 |  |
| DOM1H-131-206 A84T (other, name in Kabat numbering, VH dAb variant) VH: EVQLLESGGGLVQPGGSLRLSCAASGFTFAHETMVWVRQAPGKGLEWVSHIPPDGQDPFYADSVKGRFTISRDNSKNTLYLQMNSLRTEDTAVYHCALLPKRGPWFDYWGQGTLVTVSS |  |  |  |  |  |  |  |  | 91 |  |  |  |  |  |  | EC50 [9]: 0.79 nM; % subjects with ADA binding (10 subjects) (% of subjects) [10]: 100 |

More lines, main results first:

| Mean % Inhibition [1] [%] | % subjects with ADA binding (10 subjects) (% of subjects) [2] | Mean % inhibition of signal in confirmation assay [4] | IC50, inhibition of LPS-induced IL-8, Cynomolgus monkey whole blood (n = 3) [5] [nM] | IC50, inhibition of TNFα-induced IL-8, CYNOMK1 Cynomolgus monkey skin fibroblasts (n = 2) [5] [nM] | IC50, inhibition of TNFα-induced IL-8, A549 human lung epithelium (n = 2) [6] [nM] | IC50, inhibition of TNFα-induced IL-8, Human whole blood (n = 3-5) [6] [nM] | IC50, inhibition of TNFα-induced IL-8, MRC5 human lung fibroblast (n = 3) [6] [nM] | Mean % inhibition of signal in confirmation assay [7] [%] | Kd (cynomolgus monkey TNFR1) [nM] | koff (cynomolgus monkey TNFR1) [s⁻¹] | kon (cynomolgus monkey TNFR1) [M⁻¹ s⁻¹] | Kd [8] [nM] | koff [8] [s⁻¹] | kon [8] [M⁻¹ s⁻¹] | Binder | other results |
| --- | --- | --- | --- | --- | --- | --- | --- | --- | --- | --- | --- | --- | --- | --- | --- | --- |
| 17.5 |  |  |  |  |  |  |  |  |  |  |  |  |  |  | VHH2(f) + A (VHH) VHH: EVQLVESGGGLVQPGGSLRLSCAASGRTFSYNPMGWFRQAPGKGRELVAAISRTGGSTYYPDSVEGRFTISRDNAKRMVYLQMNSLRAEDTAVYYCAAAGVRAEDGRVRTLPSEYTFWGQGTQVTVSSAAAEVQLVESGGGLVQPGGSLRLSCAASGRTFSYNPMGWFRQAPGKGRELVAAISRTGGSTYYPDSVEGRFTISRDNAKRMVYLQMNSLRAEDTAVYYCAAAGVRAEDGRVRTLPSEYTFWGQGTQVTVSSA |  |
|  |  | 15.7% | 0.4 | 4.7 | 1 | 0.9 | 3.5 | 1.12 | 0.0197 | 0.000189 | 9.6e+06 | 0.0253 | 0.000229 | 9.02e+06 | DOM1H-131-206 with a C-terminal alanine extension (other, VH dAb variant) VH: EVQLLESGGGLVQPGGSLRLSCAASGFTFAHETMVWVRQAPGKGLEWVSHIPPDGQDPFYADSVKGRFTISRDNSKNTLYLQMNSLRAEDTAVYHCALLPKRGPWFDYWGQGTLVTVSSA |  |
